Assay results reported in PMC6737378, “Molecular Basis for ATP-Hydrolysis-Driven DNA Translocation by the CMG Helicase of the Eukaryotic Replisome” (Cell Reports, 2019).

B1: Saccharomyces cerevisiae Csm3-Tof1 complex (complex, S. cerevisiae)
chain 1: MDQDFDSLLLGFNDSDSVQKDPTVPNGLDGSVVDPTIADPTAITARKRRPQVKLTAEKLLSDKGLPYVLKNAHKRIRISSKKNSYDNLSNIIQFYQLWAHELFPKAKFKDFMKICQTVGKTDPVLREYRVSLFRDEMGMSFDVGTRETGQDLERQSPMVEEHVTSAEERPIVADSFAQDKRNVNNVDYDNDEDDDIYHLSYRNRRGRVLDERGNNETVLNNVVPPKEDLDALLKTFRVQGPVGLEENEKKLLLGWLDAHRKMEKGSMTEEDVQLIQSLEEWEMNDIEGQHTHYDLLPGGDEFGVDQDELDAMKEMGF
chain 2: MSADLQQGTTNAADFSLTVLRARIALLATAIGGPDYTSQIDPPPYKLGDDCLACLKDLKRWFKLVDDQQKRWDVAMAVAEYRILTDDLLPILIDWENKCSLAAKLAKNNPDHEEFRNKAYYDKIALNCLQLLVLMTWPLIVTEQSSSNQITLYGELKKHQLVYKKTILSMESGKVLRAAIRLALDVIKIDRLSRTPRDNMVLKLVLNFFRNVIAIEPGEFTINTKKSMPKKGITSIDTLPPNVSMDDISLNTVISSFHKNKVFGFLLTLTSSLSKEFDQDFINIPLLEIMFYFTKDVNQELLFPRQFETGTHSKVVNKNESSSANNIVTSAGFELSKLLQKEHQMRKNVIKHTSARHSRFGGLLSIQTPDKTRLTVSGSQALVDEKIALQKLDDSKKWNKRIIKKHQSVAAEGLPNSLLNSQTGKAIFFTESNGKHFKEFINNFIDSGFNILLHSVTNYFTTEQDRMVTLEQVEYLLFFAWFVKYQLLRSKIDNSADIKQVSEALKEVTFILVSSLLRSAYDLKNWTVTHAGMIAFNELLNLVSRTKAAQEEDSTDIEFIVSRLFSDERIQLLSNLPKIGSKYSLQFMKSCIELTHSVLKVLEQYSDDKTLVIEGKSRRQKKFNISEGDITKLIEEENVDRDEALDILTSSLRSIEVNFQKVQANYMTEPVIETYINFLERFRELEDDSIKKVFSFFHRVFVQAKEQALLFRFDLIILLREMLSPDGLDRMSRSRKYVSQFSDYFLARLKKRLKKSPAWFVGLLFPPLHNSEVGFYQRYGEYNVLNNESMYAAPASQFKPIPDEEALPPSILLDMKYGVLVSTLLDDGKTELLDQLLKHITHTLDIFKSWLTVNVNAGKETVNPPNEYFTLTGVLNNDPIFKDKDYRALLLLIGYSIPRKINEPCFLPGTVEVSDLTVSCELVKKYLSTPFETPNGLPSSSYLLRVRSEKDSFSHNEQDGWEGDDDYDYNDPYIVPDDQILSKSDAAYFKDLDNNASDKLKGTKFSKGIARSKKKDKRKRRKGEAKTNLPMFGDQDDERPQTVRERHGVFSKEFISDSEDDEDLMNPIFFENETYMRWLLDKNNGQLTEDRYIQFAKFAAERMNNGGVVTGDYTSLFGGSIPSIESIRATESSSFAPDKSLISLASHVASEMSIFDVNNNNNNQLSDDDVNSESRNSLGSSQPSNSQNMFQSEVYSRKESTKRSLEASAADESDEDEEAIRLFGKKSRVVLSQGDSDD
notes: Csm3, S. cerevisiae, from strain yAE48 (Yeeles et al., 2017); Tof1, S. cerevisiae, from strain yAE48 (Yeeles et al., 2017); Construct in Yeeles et al., 2017; also called ScCsm3/Tof1
B2: Saccharomyces cerevisiae Mrc1 (natural protein, S. cerevisiae, UniProt P25588 1-1096, looked up)
chain: MDDALHALSSLTAKKRTTTYKKVAVPILDENDNTNGNGPNDIDNPPELTGNGFLFANATLNRVKNRLEGKKAPEQNHNNGKDRSENSLPTQLISNLYDGGEELEKSEVKDNSYSEKNVSSSFTQTQRIPVSIQQDKVFNVPIHSVNDGKPTQLIKEDGLVNETSQALKTPLTTGRPGATQRIDSSGATSQTQPIKSIEPQSQIITTSSNHSNALSPKIPIIPTELIGTSPLFQSIQNRGPDTQMDVPPQTAHDEDKTQAIGIPQATHQEQKTQIDTVAQTLQDEVPHTLKIREIQSELASEDSKREKARNVEYKKPQKPIPTKKFFSKESFLADFDDSSSNEDDDIKLENAHPKPVQNDDELHENKSVELNLTDETRINEKRVPLLSSYANNLKREIDSSKCITLDLDSDSDEYGDDDMDSIKLSKDESVLPISQLSKATILNLKARLSKQNQKLSQRPNKSKDPKVDHNVLLNTLRKASRKQILDHQKEVIETKGLKLEDMAKEKEIVENLLEQEILRNKRIRQKEKRREKLEENDFQLNAHDSGSDSGSESSGFALSGNEIADYESSGSENDNRRESDSEKEDDEIILKQKKSHHVKHIINESDSDTEVEAKPKEKADESLPKRIAINLGHYGDNIGEDTDKFQETNVLDTQNIEEVMAERNTIENEVKDDVYVNEEADEAIRRQLIDKEKLQLKQKEKEHEAKIKELKKRGVTNFFEMEAEESEDEWHGIGGADGEGSDDYDSDLEKMIDDYSKNNFNPHEIREMLAAENKEMDIKMINKILYDIKNGGFRNKRAKNSLELELSDDDEDDVLQQYRLKRRELMRKRRLEIGDDAKLVKNPKSSAFFESMVEDIIEYKNPFGAEEEYNLDITSTATDLDTQDNSINVGDNTGNNEQKPVDQKNKKVIISEDFVQKSLSFLKSNNYEDFETDKELSRIQHGNDEAIEDLYTLKQNSSIKSFTNSQTDSTTSKTVNTIIDLEKRPEDEDEVENGDTSLVGVFKHPSIIKSFASRTDINDKFKEGNKTVKILKSYKTVGSSKASITYMGKTRKLIAPKRKTEGSHRYHHDHHNKKMKMKTKTKSNKLFESGQDSFDN
notes: Mrc1, S. cerevisiae, from strain yJY32 (Yeeles et al., 2017); Construct in Yeeles et al., 2017; also called ScMrc1; FLAG-Mrc1; source: S. cerevisiae strain yJY32, purified (anti-FLAG M2 agarose, MonoQ)
B3: Saccharomyces cerevisiae Ctf4 trimer (natural protein, S. cerevisiae, UniProt Q01454 1-927, looked up)
chain: MVSVIDKLVFDFGGKTLVSLAPDNNTLCVANKNGLTKILKTNNPEEEPETLDSSKLVSSIKCYSNSHFLMTTMQGDALRYNIDSSQEELLARFALPLRDCCVIHSGKMAVFGGDDLELILLELDDETHKKHAIKIDEQVSQISYNSQMNILAVSMINGKVQIFSLTSTIPNKVHELNDYIVANSYDDTHRDKILSNMMDDIDKDNDNDLSETADPDENNVADPEFCAANRICTRVAWHPKGLHFALPCADDTVKIFSIKGYSLQKTLSTNLSSTKAHFIDLQFDPLRGTYIAAVDLNNKLTVWNWETSEIHYTREFKRKITNIAWKIQADSKTLDLVLGTWSGSIAIVQNLAESVVSNIPDQSVAESSTKHGLFVDSESDLENLEGNDDINKSDKLFSDITQEANAEDVFTQTHDGPSGLSEKRKYNFEDEEDFIDDDDGAGYISGKKPHNEHSYSRVHKTHSFPISLANTGKFRYMPFSPAGTPFGFTDRRYLTMNEVGYVSTVKNSEQYSITVSFFDVGRFREYHFEDLFGYDLCFLNEKGTLFGQSKTGQIQYRPHDSIHSNWTKIIPLQAGERITSVAATPVRVIVGTSLGYFRSFNQFGVPFAVEKTSPIVALTAQNYRVFSVHYSQFHGLSYSLSELGTSSKRYYKRECPLPMSLPNINSDMKKDANLDYYNFNPMGIKSLFFSSYGDPCIFGSDNTLLLLSKWRSPEESKWLPILDSNMEIWKMSGGKETTDIHVWPLALAYDTLNCILVKGKHIWPEFPLPLPSEMEIRMPVFVKSKLLEENKAILNKKNEIGADTEAEEGEEDKEIQIPVSMAAEEEYLRSKVLSELLTDTLENDGEMYGNENEVLAALNGAYDKALLRLFASACSDQNVEKALSLAHELKQDRALTAAVKISERAELPSLVKKINNIREARYEQQLK
notes: Ctf4, S. cerevisiae, expression plasmids of Gambus et al., 2009; Called a trimer in the methods; Construct in Gambus et al., 2009; also called ScCtf4; source: E. coli BL21 (DE3), purified (Ni-NTA, MonoQ, Superdex 200)

Assays:
[1] = system: T1, Drosophila CMG (Cdc45-MCM-GINS helicase; DmCMG); assay: cryo-EM structure; assay type: binding, Drosophila melanogaster; details: DNA fork bound, 5 mM ATP elution buffer, 2 mM Mg(OAc)2, pH 7.6; bipartite MCM inter-protomer ATPase sites; states 1A, 1B, 2A, 2B at 3.70-4.46 Å; ADP at loosened interfaces, arising during ATP turnover
T1 construct: gene Mcm2; with Cell division control protein 45; DNA replication complex GINS protein PSF1; DNA replication complex GINS protein PSF2; DNA replication complex GINS protein PSF3; DNA replication complex GINS protein SLD5
Excerpt: cryo-EM structure on Drosophila CMG (Cdc45-MCM-GINS helicase; DmCMG) | ATP at inter-protomer interfaces is shown in red.

[2] = biological target: T2, Saccharomyces cerevisiae CMG helicase (Cdc45-MCM-GINS) (S. cerevisiae, UniProt P29469 1-868; P24279 1-971; P30665 1-933; P29496 1-775; P53091 1-1017; P38132 …); assay: DNA fork-affinity purification with silver-stained gel and negative-stain EM 2D averaging; desthiobiotin DNA fork on streptavidin magnetic beads; 250 nM CMG mixed with 350 nM Mrc1 + Csm3-Tof1, 2 mM ATPγS, then 80 nM Polε; Protein Binding Buffer, 30°C; eluted with biotin; dropouts without Mrc1 or Csm3-Tof1; parallel experiment without Polε on an M.HpaII-labeled fork; details: both partners purified
T2 construct: Mcm2, S. cerevisiae, subunit of the CMG from strain yJCZ3 (Zhou et al., 2017); Mcm3, S. cerevisiae, subunit of the CMG from strain yJCZ3; Mcm4, S. cerevisiae, subunit of the CMG from strain yJCZ3; Mcm5, S. cerevisiae, subunit of the CMG from strain yJCZ3; Mcm6, S. cerevisiae, subunit of the CMG from strain yJCZ3; Mcm7, S. cerevisiae, subunit of the CMG from strain yJCZ3; Cdc45, S. cerevisiae, …

[3] = biological target: B1; assay: DNA-affinity purification; desthiobiotin fork or blunt duplex DNA on streptavidin magnetic beads; 350 nM Mrc1, 350 nM Csm3-Tof1 or 350 nM MCT pre-incubated on ice; Protein Binding Buffer, 30°C; eluted with biotin; details: both partners purified
[4] = biological target: T2, Saccharomyces cerevisiae CMG helicase …; assay: pull-down + other: negative-stain EM; 250 nM CMG held on Calmodulin Affinity Resin, 500 nM Ctf4 added, 1 mM ATPγS, 30°C; eluted with EDTA/EGTA, cross-linked with 0.01% glutaraldehyde and imaged; details: both partners purified

For `Nc1ncnc2c1ncn2[C@@H]1O[C@H](COP(=O)(O)OP(=O)(O)O)[C@@H](O)[C@H]1O` [ADP], the cryo-EM structure [1] was “The C-terminal subunit in the spiral is ADP bound as are the non-engaged seam subunits”.

B1: binds [2].

B2: binds [2]; binds [3].

B3: binds [4].
